Source: article PMC9197560

Biological target: mature TGFβ1 produced in Nicotiana benthamiana (human)
Assay: non-reducing Tricine-PAGE with Western blot; mature TGFβ1 released by HCl, 10% Tricine-PAGE under reducing or non-reducing conditions, anti-TGFβ1 blot

stoichiometry N: 2
Substance: mature TGFβ1 produced in Nicotiana benthamiana (ligand)
